The target in one data set is dCas9 D10A;H840A (UniProt Q99ZW2). Kind of data set: single-molecule TIRF. Particulars: 3'-biotin on strand 2, SPR: 25 mM Tris-HCl pH 7.6, 50 mM NaCl, 5 mM MgCl2, 0.25 mM DTT, 0.2 mM EDTA, 0.005% P20, 20 C, single-molecule: 25 mM Tris-HCl pH 7.9, 10 mM Mg acetate.
Data set [1] addresses DnaB helicase (Escherichia coli) (UniProt P0ACB0).
The target is the same in data set [2]. The source holds these as a separate data set.
In a further data set the target is DnaB (Escherichia coli) (UniProt P0ACB0). The experiment in a line: SPR. Particulars: cited from earlier work.
Chain of DnaB (Escherichia coli) (P0ACB0 2-471): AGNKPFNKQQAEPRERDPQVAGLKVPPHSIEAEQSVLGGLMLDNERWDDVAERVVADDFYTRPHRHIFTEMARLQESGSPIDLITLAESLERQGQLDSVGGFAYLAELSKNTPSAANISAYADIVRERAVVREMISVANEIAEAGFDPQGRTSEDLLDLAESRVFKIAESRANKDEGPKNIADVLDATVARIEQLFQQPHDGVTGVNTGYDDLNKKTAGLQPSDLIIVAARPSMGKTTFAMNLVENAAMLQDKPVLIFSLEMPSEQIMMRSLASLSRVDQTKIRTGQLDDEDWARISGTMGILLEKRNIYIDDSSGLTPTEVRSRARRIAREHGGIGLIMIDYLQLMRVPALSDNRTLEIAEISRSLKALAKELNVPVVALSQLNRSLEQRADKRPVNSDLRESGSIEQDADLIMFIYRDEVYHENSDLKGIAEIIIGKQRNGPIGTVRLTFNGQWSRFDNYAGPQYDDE

Chain of DnaB helicase (Escherichia coli) (P0ACB0 whole entry): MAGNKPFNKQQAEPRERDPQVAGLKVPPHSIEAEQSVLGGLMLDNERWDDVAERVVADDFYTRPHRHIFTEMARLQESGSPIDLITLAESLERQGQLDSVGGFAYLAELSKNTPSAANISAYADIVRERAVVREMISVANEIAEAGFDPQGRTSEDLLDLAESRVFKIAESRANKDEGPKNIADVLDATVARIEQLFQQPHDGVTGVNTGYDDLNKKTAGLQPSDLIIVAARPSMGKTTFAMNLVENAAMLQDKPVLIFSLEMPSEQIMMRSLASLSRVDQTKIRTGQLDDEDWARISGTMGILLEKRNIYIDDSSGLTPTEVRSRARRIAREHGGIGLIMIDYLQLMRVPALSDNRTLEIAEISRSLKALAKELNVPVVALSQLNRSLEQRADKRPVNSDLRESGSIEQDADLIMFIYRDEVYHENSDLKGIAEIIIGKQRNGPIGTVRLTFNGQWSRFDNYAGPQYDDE
Chain of His6-Rep WT (P09980 whole entry): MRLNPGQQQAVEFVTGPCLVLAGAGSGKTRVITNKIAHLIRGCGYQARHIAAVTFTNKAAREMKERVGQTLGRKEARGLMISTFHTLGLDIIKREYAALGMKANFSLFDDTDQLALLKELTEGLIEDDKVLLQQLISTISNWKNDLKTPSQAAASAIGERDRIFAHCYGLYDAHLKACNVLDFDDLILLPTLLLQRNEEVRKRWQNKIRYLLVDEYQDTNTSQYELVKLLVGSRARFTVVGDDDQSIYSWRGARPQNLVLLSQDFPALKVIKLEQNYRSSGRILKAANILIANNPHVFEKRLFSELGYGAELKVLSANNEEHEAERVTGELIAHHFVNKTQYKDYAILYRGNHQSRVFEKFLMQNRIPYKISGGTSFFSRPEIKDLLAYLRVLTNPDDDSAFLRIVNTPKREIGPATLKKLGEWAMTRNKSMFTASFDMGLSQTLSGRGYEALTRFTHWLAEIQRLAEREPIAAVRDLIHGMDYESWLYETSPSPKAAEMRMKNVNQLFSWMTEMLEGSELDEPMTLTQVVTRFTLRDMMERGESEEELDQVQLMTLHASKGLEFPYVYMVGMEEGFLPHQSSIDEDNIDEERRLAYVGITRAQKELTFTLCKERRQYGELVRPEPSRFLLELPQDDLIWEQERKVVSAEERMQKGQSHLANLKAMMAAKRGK
Chain of His6-Rep ΔC33 (P09980 1-640, stated change not applied): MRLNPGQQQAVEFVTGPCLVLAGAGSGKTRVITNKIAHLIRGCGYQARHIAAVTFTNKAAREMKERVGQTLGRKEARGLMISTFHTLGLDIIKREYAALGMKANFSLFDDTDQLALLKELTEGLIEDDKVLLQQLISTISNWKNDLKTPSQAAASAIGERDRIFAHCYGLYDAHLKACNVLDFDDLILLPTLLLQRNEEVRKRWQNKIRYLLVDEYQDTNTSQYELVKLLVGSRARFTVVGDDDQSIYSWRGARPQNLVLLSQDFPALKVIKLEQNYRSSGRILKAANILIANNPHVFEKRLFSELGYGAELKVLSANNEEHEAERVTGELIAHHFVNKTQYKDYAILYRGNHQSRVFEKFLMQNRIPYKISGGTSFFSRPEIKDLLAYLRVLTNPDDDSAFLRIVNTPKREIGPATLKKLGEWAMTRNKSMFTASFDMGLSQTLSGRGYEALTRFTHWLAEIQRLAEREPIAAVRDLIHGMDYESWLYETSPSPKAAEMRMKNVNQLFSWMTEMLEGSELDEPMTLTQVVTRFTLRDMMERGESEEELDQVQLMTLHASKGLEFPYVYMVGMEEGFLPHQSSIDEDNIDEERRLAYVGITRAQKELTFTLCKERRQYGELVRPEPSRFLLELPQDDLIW
Chain of Rep (P09980 whole entry): as the sequence (P09980 whole entry) above

Regarding “CACATGCTATGAGCTGTTGCAATCTCTCGTACAATTAATAGACTGGATGGTGGATGACAAAGCTCTACACTAGATACTCACAC (double strand) [gRNA60 / 83-mer target]”, in the data set with dCas9 D10A;H840A, the binding signal (min (mean binding lifetime)) was found to be 8.3.

Consider “His6-Rep WT (from UniProt P09980 1-673) (enzyme)”, for which, in data set [1], the mean total DNA product length after 3 min in the single-molecule stalled rolling-circle replication assay (template pre-incubated with the dCas9-cgRNA1-Atto647 roadblock), 20 nM Rep WT came to 65 kbp. Besides, in data set [2], the replication efficiency in the single-molecule stalled rolling-circle replication assay (dCas9-cgRNA1-Atto647 roadblock), 20 nM Rep WT was determined as 2%.

Substance “CACATGCTATGAGCTGTTGCAATCTCTCGTACAATTAATAGACTGGATGGTGGATGACAAAGCTCTACACTAGATACTCACAC (double strand) [gRNA40 / 83-mer target]” gave a binding signal (min (mean binding lifetime)) with dCas9 D10A;H840A of 1.

In turn, “CACATGCTATGAGCTGTTGCAATCTCTCGTACAATTAATAGACTGGATGGTGGATGACAAAGCTCTACACTAGATACTCACAC (double strand) [gRNA80 / 83-mer target]” showed a binding signal (min (mean binding lifetime)) with dCas9 D10A;H840A of 8.6.

For the substance “His6-Rep ΔC33 (from UniProt P09980 1-640) (domain or fragment)”, the mean total DNA product length after 3 min in the single-molecule stalled rolling-circle replication assay (template pre-incubated with the dCas9-cgRNA1-Atto647 roadblock), 20 nM Rep ΔC33 in data set [1] stood at 2 kbp.

Take “CACATGCTATGAGCTGTTGCAATCTCTCGTACAATTAATAGACTGGATGGTGGATGACAAAGCTCTACACTAGATACTCACAC (double strand) [gRNA20 / 83-mer target]”: in the data set with dCas9 D10A;H840A, the binding signal (min (mean binding lifetime)) was 1.

In general, Kd refers to the equilibrium constant for the complex coming apart. Take Rep (from UniProt P09980): the Kd with DnaB (Escherichia coli) is 90 nM.

The record behind these values is article PMC10123100, “Single-molecule visualization of stalled replication-fork rescue by the Escherichia coli Rep helicase” (Nucleic Acids Research, 2023).
